Laboratory results reported in US20250034594A1, “RNA-GUIDED GENOME RECOMBINEERING AT KILOBASE SCALE” (THE BOARD OF TRUSTEES OF THE LELAND STANFORD JUNIOR …, priority 2021, published 2025).

Assays:
Type in all cases: cell-based
gene editing with Cas9 = assay: Screen of 322 new SSAP proteins, gene editing activity with Cas9 (Table 5); set-up: Cas9 with SSAP activity: scale not given here
Source text: (§1) 322 new SSAP proteins were identified from sequence data, synthesized, and screened for activity with Cas9 and dCas9. Gene editing activities are shown below in Table 5, followed by amino acid sequences of the proteins.

gene editing with dCas9 = assay: Screen of 322 new SSAP proteins, gene editing activity with dCas9 (Table 5); set-up: dCas9 with SSAP activity: scale not given here
Source text: as §1

[1] = system: gene editing with Cas9 and dCas9; assay: Screen of 322 new SSAP proteins, activity across all experiments (Cas9 and dCas9, Table 5); set-up: scale not given here
Source text: as §1

Molecule	Cas9 with SSAP activity (gene editing with Cas9)	Cas9 with SSAP activity (normalized) (gene editing with Cas9)	dCas9 with SSAP activity (gene editing with dCas9)	dCas9 with SSAP activity (normalized) (gene editing with dCas9)	Activity across all experiments [1]
SSAP_26: SEQ ID NO: 195 (protein) TVQLVQPRNSDEYDFDQTKLDLIKRTICKGATNDELQLFIHACKRTGLDPFMRQIFAVKRWDSSTKKEIMTIQTGIDGYRLIADRTGKYAPGKDTEFGYDNKGNIRWAKAYIKKMTPDGQWHEISAIAFWEEYVQTTREGKSTLFWLKKSHIMLSKCTEALALRKTFPAERSGIYTKEEMAQEFSPLEEHLVERIAASRNDQGRS	0.692	1.723	−3.399	−0.852	−1.354
SSAP_267: SEQ ID NO: 436; Clostridium combesii (protein, listed as Clostridium combesii) ANTKAIVLQETANNLNTLLKAKVKALPKGFNETRFLQNCMTVLQDTRNIEKCNSVSVARTMLKGAFLGLDFFSKECYAIPYNDYKTGKCHLEFQTDYKGERKLMKQYSVRPIKDIYAKVVREGDKFEEIIEKGIPTINFRPKPFSNEKIIGVFAVVLFEDGGLLYETMSVEDVEKIKVGFAKRDKEGNYSKAWTATPEEMYKKTVIRRLRKSVELEFDSVEQQKTYEEASEFDVKRDEEVKEEASPFENVDFEEAEEGNTIEAKQE	−0.224	−0.145	−3.571	−0.553	−1.897
SSAP_169: SEQ ID NO: 338; Streptomyces showdoensis (protein, listed as Streptomyces showdoensis) TSDARNAVARRAANVGQVEQAGEQPKPTMAQQIERMKPEIARALPKHMDADRIARIALTLIRKNPDLANCTTESFLGALMTCSQLGFEPGSPTQEAYIIPRKGQAEFQLGYQGMVTLFYQHPMASSVKVETVRENDYFEHEEGLEERLIHRPFADGPRGKAIAYYSVARLINGGRTFKVMYPAEIEERRQKLPSKNSPAWRDNYDEMAKKTVLRNHFKALPKSAELARALAHDGTVRTDWQPDAIDVPPEYLSEPQRPELEAGAQ	−1.842	−1.968	−3.497	−0.528	−2.669
SSAP_57: SEQ ID NO: 226; Pirellula sp. SH-Sr6A (protein, listed as Pirellula sp.) SEATKEAKPETAIAKKPNGIKDWLKSDALKTQIASVAPKHMAPERVMRIALNAVSRTPKLADCTPESFMRCLLDLSSWGLVPDGRHAHLIPYGTECTLVLDYKGLVTLAYRSGWVKKIHADVVFEGDIFVYSLGTVCQHIPWEFRDDANKPEHKGHFRAAYCVVTMADGIEKHEVMTASEIDAIKAKSRSGNSGPWKDHYTEMAKKTVYRRASKWLPLSPEQADAMERDDDRIIDAVSVAVTQRLSKAAMPLIGANETGDTE	−3.376	−0.549	−3.405	−0.557	−3.391
SSAP_121: SEQ ID NO: 290; Bacillus sp. JAS24-2 (protein, listed as Bacillus sp.) ATNKDVKNQLANRKASAPVTTEQTVEAYMKKMGPKMAEVLPKHMDMDRMSRIALTTIRTNPKLLECSVPSLMGAVMSAVQLGLEPGLLGHCYILPYKSEATFIIGYKGMIDLARRSGHIQSIYAHAVYENDEFEYELGLHPQLKHKPSFGDRGEFIGAYAVAHFKDGGHQMEFMPKSEIEKRRGRSASANSNYSPWKTDYEEMAKKTVVRYMFKYLPISIEVQSQAQQDEVVRKDITEEPEFIEVEQQTEGDGQGDFVIEGE	−0.279	−0.275	1.664	1.531	0.692
SSAP_96: SEQ ID NO: 265; Plesiomonas shigelloides (protein, Plesiomonas shigelloides) SNQRPPIATADLQKAQSQPPAAKPEQNLINFINQPSMKSQIAAALPRHMAPERMIRIITTEIRKTPKLATCDVQSFIGAVVQCSQLGLEPGGGLGHAYLLPFGNGKAESGKPNVQLIIGYRGMIDLARRSGQIVSISSRIVREGDQFHYEYGLNETLKHVPGDNESAPITHVYAVAKLKDGGTQFEVMSFNEIEKIRGQSKAGNDGPWIKHWEEMAKKTVIRRLFKYLPVSIEMQRAVILDEKAEADIEQDNASIIGAEYSVVENAA	−0.322	−1.581	−3.416	−1.995	−1.869
SSAP_225: SEQ ID NO: 394; Actinocrispum wychmicini (protein, listed as Actinocrispum wychmicini) SQTVTAAVAQRDNGAQALIAKYRTDFAQVLPSHLRPTTFVRLSQGLLRRNVKLAEAAERNPASFLAALLECARLGHDPGTDQFALVPFNDRKRNTVEVVGIEQYQGVIERMYRAGAVRSVKAEVVRAADPFEYAPDVMDRPGHKPNWFADRGELIGVYAYAEFFDGSTSRVVMMNRETVMAHKAKSRGATSEDSPWQAWEESMWLKTAVHELEKWVPTSSEDRRAARDGTADPAPVEVPRVADEVLDADLVEDDHADHPTATPTGDVR	−0.830	−0.252	−3.577	−0.602	−2.204
SSAP_290: SEQ ID NO: 459; Anaerovirgula multivorans (protein, Anaerovirgula multivorans) DAKHLTVVHQNLNTLLKAKADALPKGFNQTRFLQNCMTVLQDTKDIESVEPKSVARTMLKGAFLGLDFFNKECYAIVYNKKAGNSWIKTLEFQTDYKGEIKLAKKYSINTIKDIYAKLVREGDEFEEGVKDGKQVINFKPKPFNNNKILGAFAVAYYENGSMIYDTMSVEEIESVKKAYAKADKEGKYSKAWIESTGEMYKKTVLRRLCKLIELDFDTIEQKQAFDEGSGMEFKQEGKTDKPKSSLEAEFVEAEYEEVEESETSEVVEE	−1.166	−0.249	−3.506	−0.681	−2.336
SSAP_237: SEQ ID NO: 406; Paenibacillus popilliae ATCC 14706 (protein, listed as Paenibacillus popilliae) STSHLLTIHNNLEKLIDSKREAMPKSFNKTRFLQNCMTVLQDTKDVGKCDPQSVARTLLKGAFLGLDFFNKECYAITYGGSVQFQTDYKGEKKLAKKYSVRPVKDIYAKLVREGDEFIEEIKDGQPTVQFKPLPFNDSEIKGAFAVSLFEDDGLAYEVMSVAEIELTRKNYSKQPNGQAWVKSKGEMYKKTVLRRLCKNIELDFDTIEQAQAFEDSSDFEFNKEPKQAQQSPLNPQATVIDAEYEEVKEESDNETNQE	−7.473	–	−3.513	−0.512	−5.493
